Laboratory results as given in article PMC5017722.

How the values were obtained:
[1] = target: soluble hMPV F ectodomain (1-489, NL/1/00, G294E) with C-terminal TEV site, Foldon, Xa site and 6xHis-tag, uncleaved (human metapneumovirus, strain NL/1/00 (A1 sublineage)); assay: SEC; HiLoad 16/600 Superdex 200 pg; 50 mM Na2HPO4 pH 8.0, 300 mM NaCl
[2] = target: soluble postfusion hMPV F (NL/1/00, A1 sublineage), furin-cleaved, fusion peptide residues 103-111 d (human metapneumovirus, strain NL/1/00 (A1 sublineage)); assay: as above

Substance | stoichiometry N [1] | stoichiometry N [2]
soluble hMPV F ectodomain (1-489, NL/1/00, G294E) with C-terminal TEV site, Foldon, Xa site and 6xHis-tag, uncleaved (domain or fragment) | 3 | –
soluble postfusion hMPV F (NL/1/00, A1 sublineage), furin-cleaved, fusion peptide residues 103-111 d (domain or fragment) | – | 3
